From patent publication US20220088148A1 (HANMI PHARM, published 2022)
Bridges are numbered along the chain shown (N, C = ends). Where no end group is shown, it is not given here. [ ]: non-standard residue; d: D form. The star is where a group is joined. Acetyl(2-(4-imidazolyl)) = O=C(Cc1c[nH]cn1)*; Aib = CC(C)(N)C(=O)O

Assays:
Assay in all cases: cell-based or functional assay
human GIP receptor = target: T1, human GIP receptor (human, UniProt P48546 22-466)
T1 sequence (looked up): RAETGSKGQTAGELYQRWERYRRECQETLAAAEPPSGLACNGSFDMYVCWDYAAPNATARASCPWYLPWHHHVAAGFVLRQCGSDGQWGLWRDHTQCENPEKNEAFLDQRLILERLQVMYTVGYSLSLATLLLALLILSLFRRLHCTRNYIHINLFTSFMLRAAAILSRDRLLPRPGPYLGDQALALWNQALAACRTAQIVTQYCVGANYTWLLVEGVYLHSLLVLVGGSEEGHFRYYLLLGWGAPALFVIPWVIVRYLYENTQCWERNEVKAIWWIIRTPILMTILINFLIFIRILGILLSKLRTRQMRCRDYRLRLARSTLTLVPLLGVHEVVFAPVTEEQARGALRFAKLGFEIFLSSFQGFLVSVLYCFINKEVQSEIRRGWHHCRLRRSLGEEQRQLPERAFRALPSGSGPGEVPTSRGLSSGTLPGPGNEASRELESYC

human GLP-1 receptor = human GLP-1 receptor (human, UniProt P43220 24-463)
human GCG receptor = human GCG receptor (human, UniProt P47871 26-477)
Chain of human GCG receptor (P47871 26-477): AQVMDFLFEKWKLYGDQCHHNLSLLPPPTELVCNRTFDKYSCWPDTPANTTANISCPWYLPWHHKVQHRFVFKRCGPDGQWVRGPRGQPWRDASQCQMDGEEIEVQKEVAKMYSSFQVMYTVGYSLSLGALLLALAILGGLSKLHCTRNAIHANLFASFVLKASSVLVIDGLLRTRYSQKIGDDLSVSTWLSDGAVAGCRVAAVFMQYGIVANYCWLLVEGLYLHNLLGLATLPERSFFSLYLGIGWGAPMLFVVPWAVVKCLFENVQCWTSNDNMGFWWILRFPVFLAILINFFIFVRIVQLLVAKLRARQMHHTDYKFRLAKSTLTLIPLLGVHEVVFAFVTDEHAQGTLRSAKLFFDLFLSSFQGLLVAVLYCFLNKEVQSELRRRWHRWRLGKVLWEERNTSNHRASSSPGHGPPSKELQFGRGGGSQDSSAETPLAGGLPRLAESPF

Row | Binder | In vitro activity (%) vs. GIP, cAMP EC50 (human GIP receptor) [%] | In vitro activity (%) vs. GLP-1, cAMP EC50 (human GLP-1 receptor) [%] | In vitro activity (%) vs. Glucagon, cAMP EC50 (human GCG receptor) [%]
1 | H[Aib]QGTFTSDVSKYLDGQAAQEFVAWLLAGGGPSSGAPPPSC [triple agonist of SEQ ID NO: 10] | < 0.1 | 46 | < 0.1
2 | H[Aib]QGTFTSDVSKYLDGQAAQEFVAWLLKGC [triple agonist of SEQ ID NO: 8] | < 0.1 | 14.2 | 0.1
3 | Y[Aib]QGTFTSDYSKYLDERACKDFVQWLLDHHPSSGQPPPS (bridge 16-20; ends not checked) [triple agonist of SEQ ID NO: 71] | 94.7 | 90.1 | 12.7
4 | Y[Aib]QGTFTSDYSKCLDEKRAKDFVQWLLDHHPSSGQPPPS (bridge 16-20; ends not checked) [triple agonist of SEQ ID NO: 70] | 64.4 | 15.1 | 71.3
5 | Y[Aib]QGTFTSDYSKYLDEKRAKEFVQWLLCHHPSSGQPPPS (bridge 16-20) [triple agonist of SEQ ID NO: 95] | < 0.1 | 2.1 | 0.4
6 | H[Aib]EGTFTSDYSIAMDEIHQKDFVNWLLAQKC (bridge 16-20) [triple agonist of SEQ ID NO: 79] | 1.4 | 41.5 | 4.9
7 | [Acetyl(2-(4-imidazolyl))][Aib]QGTFTSDYSIAMDEIHQKDFVNWLLAQC (bridge 16-20) [triple agonist of SEQ ID NO: 85] | 0.3 | 4.3 | < 0.1
8 | Y[Aib]QGTFTSDYSKYLDEKRAKDFVQWLLDHHPSSGQPPPSC (bridge 16-20) [triple agonist of SEQ ID NO: 76] | 11.7 | 10.3 | 47.6
9 | {Acetyl(2-(4-imidazolyl))}-[Aib]QGTFTSDYSKYLDEKRQKEFVQWLLDTC (bridge 15-19) [triple agonist of SEQ ID NO: 82] | < 0.1 | 9.5 | 1.1
10 | H[Aib]EGTFTSDYSIAMDEIHQKDFVDWLLAEKC (bridge 16-20) [triple agonist of SEQ ID NO: 80] | 0.1 | 8.1 | 0
11 | {Acetyl(2-(4-imidazolyl))}-[Aib]EGTFTSDYSIAMDEIHQKDFVDWLLAEKC (bridge 15-19) [triple agonist of SEQ ID NO: 91] | 0.3 | 31.9 | 16.8
12 | {Acetyl(2-(4-imidazolyl))}-[Aib]QGTFTSDYSKYLDEKRQKEFVQWLLNTKC (bridge 15-19) [triple agonist of SEQ ID NO: 88] | < 0.1 | 9.6 | 0.3
13 | {Acetyl(2-(4-imidazolyl))}-[Aib]QGTFTSDYSKYLDEKRQKEFVNWLLAQKC (bridge 15-19) [triple agonist of SEQ ID NO: 93] | 0.7 | 5.7 | 0.3
14 | {Acetyl(2-(4-imidazolyl))}-[Aib]QGTFTSDYSIAMDEIHQKDFVNWLLAQKC (bridge 15-19) [triple agonist of SEQ ID NO: 92] | 0.4 | 0.8 | < 0.1
15 | Y[Aib]QGTFTSDYSKYLDEKAAKEFVQWLLDHHPSSGQPPPSC (bridge 16-20) [triple agonist of SEQ ID NO: 75] | 18 | 35.1 | 8.5
